This assay deals with MCP-1 receptor(s) on THP-1 cells (human (endogenous in THP-1)) (UniProt P41597). Nature of the assay: radioligand binding.
One may read the Kd as the free concentration of one partner at which half of the binding sites on the other are occupied at equilibrium, for simple one-to-one binding. A high value points to a looser complex. “MCP-1 2-76 analogue (from UniProt P13500 25-99) (domain or fragment)”: the Kd is 385 nM. On the same count and under the same terms, then “MCP-1 3-76 analogue (from UniProt P13500 26-99) (domain or fragment)”, with 487 nM; and “MCP-1 5-76 analogue (from UniProt P13500 28-99) (domain or fragment)”, with 23 nM. For orientation: IC50 means the concentration that inhibits the measured activity by half. Low readings indicate greater potency, high ones weaker potency. Regarding “MCP-1 9-76 analogue (from UniProt P13500 32-99) (domain or fragment)”, the IC50 was found to be 17 nM and the equilibrium dissociation constant (Kd) is 8.3 nM. Turning to “MCP-1 10-76 analogue (from UniProt P13500 33-99) (domain or fragment)”, the fold higher Kd than MCP-1 came out at 13 fold. The substance “MCP-1 11-76 analogue (from UniProt P13500 34-99) (domain or fragment)” returned a fold higher Kd than MCP-1 of 48 fold. Take “MCP-1 (Ac) (from UniProt P13500 24-99) (ligand)”: the Kd was 333 nM.

“Monocyte chemoattractant protein 1 (MCP-1), synthetic, NH2-terminal pyroglutamate form (from UniProt P13500 24-99) (ligand)” came in with a Kd of 2.8 nM.

These data come from PMC2191888.
